Measured values reported in US20250320281A1.

What was measured:
Experiment in all cases: cell-based or functional assay
[1] = biological target: HIV-1 Env of isolate MG RM-D-011 (HIV-1)
[2] = biological target: HIV-1 Env of isolate MG RM-D-012 (HIV-1)
[3] = biological target: HIV-1 Env of isolate MG RM-D-013 (HIV-1)
[4] = biological target: HIV-1 Env of isolate MG RM-D-014 (HIV-1)
[5] = biological target: HIV-1 Env of isolate MG RM-D-016 (HIV-1)
[6] = biological target: HIV-1 Env of isolate MG RM-D-018 (HIV-1)
[7] = biological target: HIV-1 Env of isolate MG RM-D-019 (HIV-1)
[8] = biological target: HIV-1 Env of isolate MG RM-D-020 (HIV-1)
[9] = biological target: HIV-1 Env of isolate MG RM-D-021 (HIV-1)
[10] = biological target: HIV-1 Env of isolate MG RM-D-022 (HIV-1)
[11] = biological target: HIV-1 Env of isolate MG RM-D-024 (HIV-1)
[12] = biological target: HIV-1 Env of isolate MG RM-D-026 (HIV-1)
[13] = biological target: HIV-1 Env of isolate MG RM-D-028 (HIV-1)
[14] = biological target: HIV-1 Env of isolate MG RM-D-029 (HIV-1)
[15] = biological target: HIV-1 Env of isolate MGRM-Chronic-B-012 (HIV-1)
[16] = biological target: HIV-1 Env of isolate MGRM-F1-004 (HIV-1)
[17] = biological target: HIV-1 Env of isolate MGRM-F1-006 (HIV-1)
[18] = biological target: HIV-1 Env of isolate MGRM-F1-008 (HIV-1)
[19] = biological target: HIV-1 Env of isolate MGRM-F1-010 (HIV-1)
[20] = biological target: HIV-1 Env of isolate MGRM-F1-012 (HIV-1)
[21] = biological target: HIV-1 Env of isolate MGRM-F1-013 (HIV-1)
[22] = biological target: HIV-1 Env of isolate MGRM-F1-014 (HIV-1)
[23] = biological target: HIV-1 Env of isolate MGRM-F1-015 (HIV-1)
[24] = biological target: HIV-1 Env of isolate MGRM-F1-016 (HIV-1)
[25] = biological target: HIV-1 Env of isolate MGRM-F1-017 (HIV-1)
[26] = biological target: HIV-1 Env of isolate MGRM-F1-018 (HIV-1)
[27] = biological target: HIV-1 Env of isolate MGRM-F1-020 (HIV-1)
[28] = biological target: HIV-1 Env of isolate MGRM-F1-021 (HIV-1)
[29] = biological target: HIV-1 Env of isolate MGRM-F1-022 (HIV-1)
[30] = biological target: HIV-1 Env of isolate MGRM-F1-023 (HIV-1)
[31] = biological target: HIV-1 Env of pseudovirus MGRM-AE-007 (subtype AE) (HIV-1)
[32] = biological target: HIV-1 Env of pseudovirus MGRM-AE-008 (subtype AE) (HIV-1)
[33] = biological target: HIV-1 Env of pseudovirus MGRM-AG-001 (subtype AG) (HIV-1)
[34] = biological target: HIV-1 Env of pseudovirus MGRM-AG-002 (subtype AG) (HIV-1)
[35] = biological target: HIV-1 Env of pseudovirus MGRM-AG-003 (subtype AG) (HIV-1)
[36] = biological target: HIV-1 Env of pseudovirus MGRM-AG-005 (subtype AG) (HIV-1)
[37] = biological target: HIV-1 Env of pseudovirus MGRM-AG-006 (subtype AG) (HIV-1)
[38] = biological target: HIV-1 Env of pseudovirus MGRM-AG-008 (subtype AG) (HIV-1)
[39] = biological target: HIV-1 Env of pseudovirus MGRM-AG-009 (subtype AG) (HIV-1)
[40] = biological target: HIV-1 Env of pseudovirus MGRM-AG-011 (subtype AG) (HIV-1)
[41] = biological target: HIV-1 Env of pseudovirus MGRM-AG-012 (subtype AG) (HIV-1)
[42] = biological target: HIV-1 Env of pseudovirus MGRM-AG-013 (subtype AG) (HIV-1)
[43] = biological target: HIV-1 Env of isolate 92RW008 (pseudovirus) (HIV-1)
[44] = biological target: HIV-1 Env of isolate 92TH021 (pseudovirus) (HIV-1)
[45] = biological target: HIV-1 Env of isolate 92UG031 (pseudovirus) (HIV-1)
[46] = biological target: HIV-1 Env of isolate 92UG037 (pseudovirus) (HIV-1)
[47] = biological target: HIV-1 Env of isolate 92WR009 (pseudovirus) (HIV-1)
[48] = biological target: HIV-1 Env of isolate 92WR020 (pseudovirus) (HIV-1)
[49] = biological target: HIV-1 Env of isolate 92WR021 (pseudovirus) (HIV-1)
[50] = biological target: HIV-1 Env of isolate 92WR024 (pseudovirus) (HIV-1)
[51] = biological target: HIV-1 Env of isolate 92WR026 (pseudovirus) (HIV-1)
[52] = biological target: HIV-1 Env of isolate 93UG077 (pseudovirus) (HIV-1)
[53] = biological target: HIV-1 Env of isolate 93WR029 (pseudovirus) (HIV-1)
[54] = biological target: HIV-1 Env of isolate 94KE105 (pseudovirus) (HIV-1)
[55] = biological target: HIV-1 Env of isolate 94UG103 (pseudovirus) (HIV-1)
[56] = biological target: HIV-1 Env of isolate CMU02 (pseudovirus) (HIV-1)
[57] = biological target: HIV-1 Env of isolate MGRM-A-001 (pseudovirus) (HIV-1)
[58] = biological target: HIV-1 Env of isolate MGRM-A-002 (pseudovirus) (HIV-1)
[59] = biological target: HIV-1 Env of isolate MGRM-A-003 (pseudovirus) (HIV-1)
[60] = biological target: HIV-1 Env of isolate MGRM-A-004 (pseudovirus) (HIV-1)
[61] = biological target: HIV-1 Env of isolate MGRM-A-005 (pseudovirus) (HIV-1)
[62] = biological target: HIV-1 Env of isolate MGRM-A-006 (pseudovirus) (HIV-1)
[63] = biological target: HIV-1 Env of isolate MGRM-A-007 (pseudovirus) (HIV-1)
[64] = biological target: HIV-1 Env of isolate MGRM-A-008 (pseudovirus) (HIV-1)
[65] = biological target: HIV-1 Env of isolate MGRM-A-009 (pseudovirus) (HIV-1)
[66] = biological target: HIV-1 Env of isolate MGRM-A-010 (pseudovirus) (HIV-1)
[67] = biological target: HIV-1 Env of isolate MGRM-A-011 (pseudovirus) (HIV-1)
[68] = biological target: HIV-1 Env of isolate MGRM-A-012 (pseudovirus) (HIV-1)
[69] = biological target: HIV-1 Env of isolate MGRM-A-013 (pseudovirus) (HIV-1)
[70] = biological target: HIV-1 Env of isolate MGRM-A-014 (pseudovirus) (HIV-1)
[71] = biological target: HIV-1 Env of isolate MGRM-AE-001 (pseudovirus) (HIV-1)
[72] = biological target: HIV-1 Env of isolate MGRM-AE-002 (pseudovirus) (HIV-1)
[73] = biological target: HIV-1 Env of isolate MGRM-AE-003 (pseudovirus) (HIV-1)
[74] = biological target: HIV-1 Env of isolate VLGCA1 (pseudovirus) (HIV-1)
[75] = biological target: HIV-1 Env of isolate 92BR020 (pseudovirus) (HIV-1)
[76] = biological target: HIV-1 Env of isolate JR-CSF (pseudovirus) (HIV-1) (UniProt P20871)
[77] = biological target: HIV-1 Env of isolate MGRM-C-026 (pseudovirus) (HIV-1)

PGT-145 (4995_P16) (antibody), sequence (VH): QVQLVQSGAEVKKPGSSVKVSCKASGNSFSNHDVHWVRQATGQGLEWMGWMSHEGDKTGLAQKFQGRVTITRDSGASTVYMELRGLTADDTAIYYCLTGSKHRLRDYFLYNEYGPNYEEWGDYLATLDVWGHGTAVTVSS
PGT-145 (4995_P16) (antibody), sequence (VL): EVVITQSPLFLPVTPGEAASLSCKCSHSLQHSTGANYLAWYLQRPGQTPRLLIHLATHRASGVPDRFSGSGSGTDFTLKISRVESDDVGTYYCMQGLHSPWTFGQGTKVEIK

PGT-145 (4995_P16) (antibody)
IC50 [1]: 14.7 µg/mL | IC50 [2]: > 50 µg/mL | IC50 [3]: 3.48 µg/mL | IC50 [4]: 2.51 µg/mL | IC50 [5]: > 50 µg/mL | IC50 [6]: 0.065 µg/mL | IC50 [7]: 0.111 µg/mL | IC50 [8]: 10 µg/mL | IC50 [9]: > 50 µg/mL | IC50 [10]: 34.3 µg/mL | IC50 [11]: 0.224 µg/mL | IC50 [12]: 0.41 µg/mL | IC50 [13]: 0.721 µg/mL | IC50 [14]: 0.03 µg/mL | IC50, pseudovirus neutralization [15]: 9.06 µg/mL | IC50 [16]: 0.361 µg/mL | IC50 [17]: 13.6 µg/mL | IC50 [18]: 0.228 µg/mL | IC50 [19]: 3.32 µg/mL | IC50 [20]: 0.113 µg/mL | IC50 [21]: 0.402 µg/mL | IC50 [22]: 0.009 µg/mL | IC50 [23]: 1.76 µg/mL | IC50 [24]: 17.5 µg/mL | IC50 [25]: 0.286 µg/mL | IC50 [26]: 1.02 µg/mL | IC50 [27]: 0.816 µg/mL | IC50 [28]: 8.04 µg/mL | IC50 [29]: 0.009 µg/mL | IC50 [30]: 5.88 µg/mL | IC50, pseudovirus neutralization [31]: 0.181 µg/mL | IC50, pseudovirus neutralization [32]: 1.46 µg/mL | IC50, pseudovirus neutralization [33]: 0.164 µg/mL | IC50, pseudovirus neutralization [34]: 0.056 µg/mL | IC50, pseudovirus neutralization [35]: > 50 µg/mL | IC50, pseudovirus neutralization [36]: 0.045 µg/mL | IC50, pseudovirus neutralization [37]: 6.6 µg/mL | IC50, pseudovirus neutralization [38]: 0.244 µg/mL | IC50, pseudovirus neutralization [39]: > 50 µg/mL | IC50, pseudovirus neutralization [40]: 0.003 µg/mL | IC50, pseudovirus neutralization [41]: > 50 µg/mL | IC50, pseudovirus neutralization [42]: 14.4 µg/mL

PGT-121 (4838_L06; 4873_E03) (antibody)
IC50 (µg/mL), pseudovirus neutralization [43]: 0.003 µg/mL | IC50 (µg/mL), pseudovirus neutralization [44]: > 50 µg/mL | IC50 (µg/mL), pseudovirus neutralization [45]: > 50 µg/mL | IC50 (µg/mL), pseudovirus neutralization [46]: 0.031 µg/mL | IC50 (µg/mL), pseudovirus neutralization [47]: 1.74 µg/mL | IC50 (µg/mL), pseudovirus neutralization [48]: 0.004 µg/mL | IC50 (µg/mL), pseudovirus neutralization [49]: 0.009 µg/mL | IC50 (µg/mL), pseudovirus neutralization [50]: > 50 µg/mL | IC50 (µg/mL), pseudovirus neutralization [51]: 0.014 µg/mL | IC50 (µg/mL), pseudovirus neutralization [52]: 0.019 µg/mL | IC50 (µg/mL), pseudovirus neutralization [53]: > 50 µg/mL | IC50 (µg/mL), pseudovirus neutralization [54]: 0.029 µg/mL | IC50 (µg/mL), pseudovirus neutralization [55]: 2.52 µg/mL | IC50 (µg/mL), pseudovirus neutralization [56]: > 50 µg/mL | IC50 (µg/mL), pseudovirus neutralization [57]: > 50 µg/mL | IC50 (µg/mL), pseudovirus neutralization [58]: 0.013 µg/mL | IC50 (µg/mL), pseudovirus neutralization [59]: 0.435 µg/mL | IC50 (µg/mL), pseudovirus neutralization [60]: > 50 µg/mL | IC50 (µg/mL), pseudovirus neutralization [61]: > 50 µg/mL | IC50 (µg/mL), pseudovirus neutralization [62]: 0.396 µg/mL | IC50 (µg/mL), pseudovirus neutralization [63]: > 50 µg/mL | IC50 (µg/mL), pseudovirus neutralization [64]: > 50 µg/mL | IC50 (µg/mL), pseudovirus neutralization [65]: 0.006 µg/mL | IC50 (µg/mL), pseudovirus neutralization [66]: 2.44 µg/mL | IC50 (µg/mL), pseudovirus neutralization [67]: > 50 µg/mL | IC50 (µg/mL), pseudovirus neutralization [68]: 0.092 µg/mL | IC50 (µg/mL), pseudovirus neutralization [69]: 0.387 µg/mL | IC50 (µg/mL), pseudovirus neutralization [70]: 0.003 µg/mL | IC50 (µg/mL), pseudovirus neutralization [71]: > 50 µg/mL | IC50 (µg/mL), pseudovirus neutralization [72]: > 50 µg/mL | IC50 (µg/mL), pseudovirus neutralization [73]: > 50 µg/mL | IC50 (µg/mL), pseudovirus neutralization [74]: > 50 µg/mL

4873_E03 (PGT-121) (antibody)
Primary Neutralization Index (B cell culture supernatant) [75]: 3.6 | Primary Neutralization Index (B cell culture supernatant) [55]: 0.8 | Primary Neutralization Index (B cell culture supernatant) [76]: 2.2 | Primary Neutralization Index (B cell culture supernatant) [77]: 371
